Assay results published in US20240409645A1.
Numbering of substitutions follows the chain as printed.

T1: mouse IL-2Rβ (mouse) (UniProt P16297)
T1 sequence (looked up): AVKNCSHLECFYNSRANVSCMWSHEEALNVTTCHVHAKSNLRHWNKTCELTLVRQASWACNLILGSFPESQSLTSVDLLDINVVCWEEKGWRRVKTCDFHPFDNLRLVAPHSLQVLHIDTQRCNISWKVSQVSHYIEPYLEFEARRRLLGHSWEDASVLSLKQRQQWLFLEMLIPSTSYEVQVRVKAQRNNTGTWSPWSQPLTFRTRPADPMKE

B1: FJ1427_P035MP02E03 (VHH)
VHH: EVQLVESGGGSVQTGGSLRLSCVVSGSHFISDVMGWYRQVPGKQRELVADMADGGSVKYGDSVKGRFTILRDSVKNTVTLQMSSLNPEDTGVYYCKAGLWITGRHFDYWGQGTQVTVTS
B2: FJ1427_P035MP02F03 (VHH)
VHH: EVQLVESGGGLVQAGGSLRLSCAASGGTFSSYAMGWFRQAPGKEREFVAATTRGGGRTMYAVSTEGRFTCSRDNAKNTVYLLMNSLKPEDTAVYYCAAMTSYYSGTYYPDSSDFDIWGQGTQVTVSS
B3: FJ1427_P035MP02G03 (VHH)
VHH: QVQLVESGGGLVQPGGSLGLSCAASGFTFSNYAMSWVRQAPGKGLEWVASITGFGRGTDYADSVKGRFTVSRDNAKNTLYLQMNSLKPEDTAVYYCAKYSSSTYYPPTPARGRDYRGQGTQVTVSS
B4: FJ1427 P035MP02A04 (VHH)
VHH: EVQLVESGGGLVQTGGSLRLSCTASGSQFINDVMGWYRQVPGKQRELVADMDDTGSTKYADSVNGRFTILRDSVKNTAYLQMSNLKPEDTGVYYCKAGLWIKGRHSDYWGQGTQVTVSS
B5: FJ1427_P035MP02B04 (VHH)
VHH: B2 VHH with R19G, L82Q, E89K, V93I
B6: FJ1427_P035MP02C04 (VHH)
VHH: B3 VHH with G19E, A49S, V70I, A75D, K98R
B7: FJ1427_P035MP02D04 (VHH)
VHH: QVQLVESGGGLVQTGGSLRLSCAVSGSRFISDVMGWYRQVPGKQRELVADMADGGSAKYADSVKGRFSILRDSVKNTVYLQMSSLKPEDTGIYYCKAGLWIAGRHSDYWGQGTQVTVSS
B8: FJ1427_P035MP02E04 (VHH)
VHH: B2 VHH with L82Q, E89K, V93I
B9: FJ1427 P035MP02F04 (VHH)
VHH: B4 VHH with T23A, N64K, S106F
B10: FJ1427_P035MP02G04 (VHH)
VHH: B4 VHH with E1Q, T14A, T23A, N64K, S106F
B11: FJ1427 P035MP02H04 (VHH)
VHH: B2 VHH with E1Q, G16D, A24T, G27L, M34L, E44K, A75D, E89K
B12: FJ1427_P035MP02A05 (VHH)
VHH: B4 VHH with T23A, N64K
B13: FJ1427_P035MP02B05 (VHH)
VHH: B4 VHH with T23A, N64K, S106F
B14: FJ1427 P035MP02C05 (VHH)
VHH: B7 VHH

molecular target: T1, mouse IL-2Rβ (mouse); test: P.E. ELISA, coated protein

Binder	P.E. binding ELISA OD
B1	0.049 OD450 nm
B2	0.048 OD450 nm
B3	0.049 OD450 nm
B4	0.048 OD450 nm
B5	0.047 OD450 nm
B6	0.047 OD450 nm
B7	0.048 OD450 nm
B8	0.048 OD450 nm
B9	0.048 OD450 nm
B10	0.048 OD450 nm
B11	0.05 OD450 nm
B12	0.047 OD450 nm
B13	0.048 OD450 nm
B14	0.047 OD450 nm
